Assay results from patent US20250019435A1 (ALBERT EINSTEIN COLLEGE OF MEDICINE, published 2025).

Target: T1, KIR2DL5 wild type (KIR2DL5A*001) expressed on cells (human, UniProt Q8N109 22-375)
T1 construct: UniProtKB Q8N109 and NP_065396.1 are printed for this entry; In the SHP-1/SHP-2 co-immunoprecipitation the cells were treated with pervanadate and the receptor was tyrosine-phosphorylated; also called KIR2DL5/3T3; WT KIR2DL5
Test: flow cytometry, blocking: KIR2DL5/3T3 cells preincubated with serial F8B30, then 20 µg/mL PVR-Ig
Experimental: Specifically, a cell-based binding assay was performed by incubating PVR-Ig fusion protein with KIR2DL5- or KIR2DL4-expressing 3T3 cells. Conversely, KIR2DL5 was selectively bound by PVR, but not by CD112 (also known as nectin-2), another ligand for TIGIT and DNAM-1 in the nectin/nectin-like family (FIG. 10A). Furthermore, anti-KIR2DL5 mAb F8B30 blocked KIR2DL5-PVR interaction (EC₅₀=0.095 μM) (FIG. 10B). The specificity of KIR2DL5 binding to PVR was also evidenced by an intercellular interaction assay, in which 3T3 cells expressing PVR interacted with 3T3 cells expressing KIR2DL5, but not with cells expressing KIR3DL3 (FIG. 18B), a newly identified inhibitory receptor of HHLA2 (Zang, 2022; Wei 2021; Bhatt 2021).
Fusion protein cell binding assays. PVR-Ig, CD112-Ig, or hIgG (R&D Systems) was incubated with corresponding 3T3 cells on ice for 45 minutes, followed by incubation with APC- or PE-conjugated anti-human IgG Fc antibody (1:100; clone HP6017, BioLegend) on ice for 30 minutes. Cells were then acquired on an LSR II flow cytometer (BD Biosciences). In the anti-KIR2DL5 mAb blocking assay, KIR2DL5/3T3 cells were preincubated with a serial concentration of anti-KIR2DL5 mAb F8B30 or mIgG1 on ice for 30 minutes. After washing, the cells were then incubated with 20 μg/mL PVR-Ig or hIgG on ice for 45 minutes, followed by incubation with APC anti-human IgG Fc antibody on ice for 30 minutes. […]

EC50: 95 nM
B1: anti-KIR2DL5 mAb clone F8B30 (antibody, V domains shown)
VH: QIQLVQSGPELKKPGETVKISCKASGYTFTDYSMHWVKQAPGKGLKWMGWINTETGGPTYADDFKGRFAFSLETSATTAYLQINNLKNEDTATYFCSRDVDLYFDYWGQGTTLTVS
VL: DIQMTQSPASLSASVGETVTITCRTSENIYSYLAWYQQKQGKSPQLLVYNAKTLVEGVPSRFSGSGSGTQFSVKINSLQPEDFGNYYCQHHYGIPFTFGGGTKLEIK
notes: also called F8B30 (IgG1, κ)
